In the supplement of paper PMC7877785:
± gives the uncertainty stated by the source.

Assay: self-splicing fitness, log relative to wild type (ln ratio); higher = more splicing; Tetrahymena group I intron in knt gene, E. coli kanamycin selection, DiMSum; sequences stand for … in CUCUCU…GGAGGGAAAAGUUAUCAGGCAUGCACCUGGUAGCUAGUCUUUAAACCAAUAGAUUGCAUCGGUUUAAAAGGCAAGACCGUCAAAUUGCGGGAAAGGGGUCAACAGCCGUUCAGUACCAAGUCUCAGGGGAAACUUUGAGAUGGCCUUGCAAAGGGUAUGGUAAUAAGCUGACGGACAUGGUCCUAACCACGCAGCCAAGUCCUAAGUCAACAGAUCUUCUGUUGAUAUGGAUGCAGUUCACAGACUAAAUGUCGGUCGGGGAAGAUGUAUUCUUCUCAUAAGAUAUAGUCGGACCUCUCCUUAAUGGGAGCUAGCGGAUGAAGUGAUGCAACACUGGAGCCGCUGGGAACUAAUUUGUAUGCGAAAGUAUAUUGAUUAGUUUUGGAGUACUCGUGGUCG
In short: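 DiMSum derived fitness as the error-weighted combination of fold changes across replicates, kanamycin versus no kanamycin, normalised to wild type. E. coli BL21(DE3) held the library, which randomised all eight P1ex-region intron nucleotides within the knt kanamycin-resistance gene on pET-22b(+). Six replicate transformations grew overnight at 37°C or 30°C on LB agar with or without 25 μg/mL kanamycin, also containing 100 μg/mL carbenicillin, 50 μM IPTG and 0.2% rhamnose, and pooled colonies were amplicon-sequenced on an Illumina HiSeq 2500.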

Sequence	self-splicing fitness (ln) (30 °C)	self-splicing fitness (ln) (37 °C)
UGUCAGCAAUAUUACGGCCU	-0.452 ± 0.23	0.483 ± 0.3
ACCGAGCAAUAUUACGCUUG	-3.65 ± 0.21	-2.17 ± 0.26
GUCCAGCAAUAUUACGGCAA	-0.33 ± 0.097	-0.363 ± 0.085
UCAUAGCAAUAUUACGGUUC	-3.57 ± 0.35	
AAGAAGCAAUAUUACGUUAG	-3.65 ± 0.31	-2.77 ± 0.22
UUGAAGCAAUAUUACGGGAA	-0.195 ± 0.11	-0.634 ± 0.15
UUAAAGCAAUAUUACGCAAU	-2.44 ± 0.15	-1.42 ± 0.17
CAUUAGCAAUAUUACGGGUA	-1.06 ± 0.11	-0.972 ± 0.13
CUGAAGCAAUAUUACGAAAG	-0.525 ± 0.12	-0.0848 ± 0.16
UCGCAGCAAUAUUACGGGUU	-2.63 ± 0.14	-2.38 ± 0.16
CCACAGCAAUAUUACGUGAC	-3.38 ± 0.16	-2.01 ± 0.13
UUUGAGCAAUAUUACGGAGU	-2.49 ± 0.28	
CAUUAGCAAUAUUACGAUUA	-1.47 ± 0.085	-0.981 ± 0.081
GGAAAGCAAUAUUACGGACC	-2.35 ± 0.36	-1.44 ± 0.41
UAUAAGCAAUAUUACGACGG	-0.907 ± 0.12	0.474 ± 0.18
UGUGAGCAAUAUUACGGGCC	-3 ± 0.31	-3.45 ± 0.39
AAGUAGCAAUAUUACGUAUG	-3.38 ± 0.22	-1.4 ± 0.19
AAUAAGCAAUAUUACGCCGA	-0.856 ± 0.14	-0.632 ± 0.16
AUAUAGCAAUAUUACGCUGC		-1.74 ± 0.34
GCUUAGCAAUAUUACGAUGU	-0.306 ± 0.083	-0.00189 ± 0.11
CCUGAGCAAUAUUACGGCUA	-1.85 ± 0.33	
GUAGAGCAAUAUUACGUGAG	-2.33 ± 0.15	-0.687 ± 0.16
CUGGAGCAAUAUUACGAUAC	-2.26 ± 0.22	
UAUAAGCAAUAUUACGUGCC	-3.05 ± 0.22	-1.44 ± 0.17
GGGUAGCAAUAUUACGCGAA	-0.995 ± 0.16	-0.21 ± 0.13

Sequence	self-splicing fitness (ln) (30 °C)	self-splicing fitness (ln) (37 °C)
GCUAAGCAAUAUUACGACAA	-1.43 ± 0.18	-2.5 ± 0.2
GACGAGCAAUAUUACGAUAU	-3.83 ± 0.33	-2.15 ± 0.32
UGAGAGCAAUAUUACGACGU	-2.66 ± 0.19	-1.78 ± 0.24
UCACAGCAAUAUUACGCGCA	-0.0823 ± 0.068	0.0608 ± 0.075
UAGGAGCAAUAUUACGCAGG	-2 ± 0.21	
UGACAGCAAUAUUACGGCAC	-3.55 ± 0.19	-2.23 ± 0.19
UCUCAGCAAUAUUACGAUAG	-2.43 ± 0.15	-0.737 ± 0.15
GCCGAGCAAUAUUACGCAUC	-2.54 ± 0.24	-1.48 ± 0.28
CACAAGCAAUAUUACGCGUU	-2.55 ± 0.098	-1.3 ± 0.091
GCGAAGCAAUAUUACGGCGA	-0.0437 ± 0.14	0.0298 ± 0.15
GCUGAGCAAUAUUACGUAUU	-4.1 ± 0.28	-2.3 ± 0.22
AGCAAGCAAUAUUACGUUAU	-2.78 ± 0.11	-1.54 ± 0.12
GUUGAGCAAUAUUACGUCCA	-2.21 ± 0.34	
AACCAGCAAUAUUACGGUUC	-3.75 ± 0.14	-2.43 ± 0.17
GUAAAGCAAUAUUACGACGA	0.208 ± 0.073	1.1 ± 0.1
UGCUAGCAAUAUUACGAGCC	-0.0254 ± 0.11	-0.681 ± 0.2
AUAUAGCAAUAUUACGCGCG	-0.915 ± 0.12	-0.503 ± 0.15
UCGCAGCAAUAUUACGGUUU	-3.17 ± 0.12	-1.72 ± 0.12
UGAGAGCAAUAUUACGAAGG	-2.94 ± 0.18	-1.85 ± 0.27
UAUCAGCAAUAUUACGAGUC		-1.81 ± 0.48
AACCAGCAAUAUUACGAAUC	-1.65 ± 0.094	-0.882 ± 0.1
CUGAAGCAAUAUUACGGCUG	-0.126 ± 0.074	0.668 ± 0.11
CCCGAGCAAUAUUACGAUGU	-3.46 ± 0.25	-2.13 ± 0.27
CUAUAGCAAUAUUACGAACU	-3.67 ± 0.43	
CCGAAGCAAUAUUACGACUA	-2.1 ± 0.37	-2.65 ± 0.36

Sequence	self-splicing fitness (ln) (30 °C)	self-splicing fitness (ln) (37 °C)
CUGUAGCAAUAUUACGUCUA		-1.78 ± 0.39
UAGCAGCAAUAUUACGAAAU	-1.96 ± 0.24	-1.66 ± 0.28
ACGUAGCAAUAUUACGCAUG	-2.97 ± 0.15	-0.981 ± 0.11
CCCAAGCAAUAUUACGAUAC	-3.63 ± 0.46	
UAUUAGCAAUAUUACGUUGG	-2.1 ± 0.21	-0.685 ± 0.18
UAUGAGCAAUAUUACGGUGC	-3.01 ± 0.41	-0.888 ± 0.3
AUAUAGCAAUAUUACGGAGC		-2.15 ± 0.46
UUAAAGCAAUAUUACGCACC	-0.965 ± 0.33	-0.676 ± 0.44
AAAGAGCAAUAUUACGUAGA	-3.25 ± 0.24	-1.7 ± 0.2
AAUGAGCAAUAUUACGUGUG	-4.35 ± 0.3	-1.65 ± 0.17
CUAAAGCAAUAUUACGUGUA	-3.82 ± 0.19	-3.2 ± 0.23
CACCAGCAAUAUUACGGGAA	-1.05 ± 0.059	-1.07 ± 0.075
CCACAGCAAUAUUACGGACG	-0.832 ± 0.05	-0.23 ± 0.066
UGAUAGCAAUAUUACGCGUU	-2.9 ± 0.24	-2.54 ± 0.39
CCACAGCAAUAUUACGGGUU	-3.68 ± 0.16	-2.58 ± 0.21
GCACAGCAAUAUUACGUUGG	-1.6 ± 0.058	-0.74 ± 0.071
UCUUAGCAAUAUUACGGUCC	-3.99 ± 0.29	-2.74 ± 0.43
UGCUAGCAAUAUUACGAAUG	-0.8 ± 0.1	0.288 ± 0.16
AAGUAGCAAUAUUACGAUCC	-0.772 ± 0.19	-0.304 ± 0.29
UAGAAGCAAUAUUACGUCAG	-0.574 ± 0.078	-0.0756 ± 0.092
AUUUAGCAAUAUUACGUGUC	-2.55 ± 0.42	-2.87 ± 0.43
UUCUAGCAAUAUUACGGGGC	-3.22 ± 0.32	-2.02 ± 0.26
AAAUAGCAAUAUUACGGCAU	-0.403 ± 0.093	-0.183 ± 0.13
CCCGAGCAAUAUUACGUCAU	-3.95 ± 0.31	-2.99 ± 0.26
CUAGAGCAAUAUUACGUUCC		0.291 ± 0.28

Sequence	self-splicing fitness (ln) (30 °C)	self-splicing fitness (ln) (37 °C)
ACAUAGCAAUAUUACGCGCA	-0.42 ± 0.076	-0.818 ± 0.088
CACAAGCAAUAUUACGCCGC	-2.66 ± 0.28	-2.34 ± 0.37
GGACAGCAAUAUUACGUAAA	-0.529 ± 0.12	0.362 ± 0.16
AGCUAGCAAUAUUACGUUAC	-3.52 ± 0.27	-1.87 ± 0.18
GAGGAGCAAUAUUACGAACC	-2.84 ± 0.42	-1.19 ± 0.38
CAGGAGCAAUAUUACGCCUC	-2.08 ± 0.23	
GUCGAGCAAUAUUACGUGGG	-2.55 ± 0.21	-0.374 ± 0.14
GACGAGCAAUAUUACGAGUC	-3.37 ± 0.2	-2.85 ± 0.31
GUCUAGCAAUAUUACGUUUA	-0.64 ± 0.12	-1 ± 0.1
GGAAAGCAAUAUUACGUGAU	-2.79 ± 0.086	-1.76 ± 0.089
AGCAAGCAAUAUUACGGAGA	-3.25 ± 0.17	-2.35 ± 0.19
CCCAAGCAAUAUUACGGGCU	-3.61 ± 0.18	-2.31 ± 0.17
CAUUAGCAAUAUUACGAAGG	-1.09 ± 0.089	-0.624 ± 0.099
ACUCAGCAAUAUUACGGGCC	-1.32 ± 0.092	-1.13 ± 0.11
GUACAGCAAUAUUACGCAAA	-0.875 ± 0.14	-2.48 ± 0.28
GACCAGCAAUAUUACGGGGU	-3.79 ± 0.19	-1.82 ± 0.14
AGGUAGCAAUAUUACGGGAG	-3.83 ± 0.03	-2.39 ± 0.038
AAAGAGCAAUAUUACGUGGU	-4.52 ± 0.27	-3.08 ± 0.18
UUCAAGCAAUAUUACGAGAG	-1.5 ± 0.11	-1.34 ± 0.11
GUGCAGCAAUAUUACGUCUU	-1.33 ± 0.083	-0.0365 ± 0.11
UGGAAGCAAUAUUACGAUAA	-1.6 ± 0.12	-0.36 ± 0.15
CAUAAGCAAUAUUACGUUAU	-4.62 ± 0.3	-2.58 ± 0.16
UAUGAGCAAUAUUACGUAUA	-2 ± 0.4	-1.02 ± 0.28
UAAAAGCAAUAUUACGCCAA	-2.34 ± 0.22	-1.63 ± 0.18
